From patent publication US20230322924A1 (Janssen / Centocor, published 2023)

Assays:
Human CD33 ECD-HSA [1] = target: Human CD33 ECD-HSA (human); assay: ProteOn SPR, mAb captured by anti-human Fc, 1:1 Langmuir fit
Cyno CD33 ECD-HSA [2] = target: T1, Cyno CD33 ECD-HSA (cynomolgus monkey); assay: as above
T1 construct: Cyno CD33 extracellular domain fused to monomeric human serum albumin and a six-histidine tag; also called C33W1

Human CD33 ECD-HSA [3] = target: Human CD33 ECD-HSA (human); assay: SPRi off-rate screen (IBIS MX96), mAb captured by anti-human Fc; column head prints KD
[4] = target: T2, Human CD33 full length, expressed on HEK293F cells (human, UniProt P20138 18-364); assay: flow cytometry, HEK293F cells expressing human CD33
T2 construct: HEK293F cells transduced with lentivirus containing full length human CD33; also called huCD33

[5] = target: T3, Cyno CD33 full length, expressed on HEK293F cells (cynomolgus monkey); assay: flow cytometry, HEK293F cells expressing cyno CD33
T3 construct: HEK293F cells transduced with lentivirus containing full length cyno CD33 (Genbank XP_005590138.1); also called cyCD33

Cyno CD33 ECD-HSA [6] = target: T1, Cyno CD33 ECD-HSA; assay: SPRi off-rate screen (IBIS MX96), mAb captured by anti-human Fc; column head prints Cyno CD33 binding KD

T2 sequence (P20138 18-364 limits assumed): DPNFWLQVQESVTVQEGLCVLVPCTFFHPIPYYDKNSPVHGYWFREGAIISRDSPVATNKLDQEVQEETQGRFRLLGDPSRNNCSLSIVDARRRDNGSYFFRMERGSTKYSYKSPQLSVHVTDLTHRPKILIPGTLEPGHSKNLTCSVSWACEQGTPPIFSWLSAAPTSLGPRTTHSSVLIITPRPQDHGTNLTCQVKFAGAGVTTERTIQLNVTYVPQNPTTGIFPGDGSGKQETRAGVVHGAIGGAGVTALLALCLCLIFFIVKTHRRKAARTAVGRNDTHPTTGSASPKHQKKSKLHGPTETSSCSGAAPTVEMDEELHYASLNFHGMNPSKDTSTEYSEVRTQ
Chain of Human CD33 ECD-HSA (human) (chain, as listed by the source): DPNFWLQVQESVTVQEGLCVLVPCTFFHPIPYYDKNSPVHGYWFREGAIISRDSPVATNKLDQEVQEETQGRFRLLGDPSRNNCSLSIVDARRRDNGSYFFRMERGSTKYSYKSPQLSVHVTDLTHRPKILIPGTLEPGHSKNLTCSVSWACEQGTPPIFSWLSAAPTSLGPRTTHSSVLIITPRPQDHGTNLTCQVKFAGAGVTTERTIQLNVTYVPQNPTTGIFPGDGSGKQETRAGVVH

Binder | Kd (Human CD33 ECD-HSA [1]) [nM] | koff (Human CD33 ECD-HSA [1]) [s⁻¹] | kon (Human CD33 ECD-HSA [1]) [M⁻¹ s⁻¹] | Kd (Cyno CD33 ECD-HSA [2]) [nM] | koff (Cyno CD33 ECD-HSA [2]) [s⁻¹] | kon (Cyno CD33 ECD-HSA [2]) [M⁻¹ s⁻¹] | koff (Human CD33 ECD-HSA [3]) [s⁻¹] | MFI at 0 nM mAb (background) [4] [MFI] | MFI at 0.6 nM mAb [4] [MFI] | MFI at 6 nM mAb [4] [MFI] | MFI at 60 nM mAb [4] [MFI] | MFI at 0 nM mAb (background) [5] [MFI] | MFI at 0.6 nM mAb [5] [MFI] | MFI at 6 nM mAb [5] [MFI] | MFI at 60 nM mAb [5] [MFI] | koff (Cyno CD33 ECD-HSA [6]) [s⁻¹]
C33B52 (antibody, IgG1, V domains shown, huIgG1 F405L; also called C33F57; C33H42/C33L8) VH: QLQLQESGPGLVNPSETLSHTCTVSGGSISSSSHYWGWIRQPPGKGLEWIGKIYYSGNTYYNPSLKSRVTISIDTSKNQFSLKMSSVTAADTAVYYCARLADVVVVPAARYFDSWGQGTLVTVSS VL: SYELTQPPSVSVSPGQTASIICSGDKLGNKYACWYQQKPGQSPVLVIYQDSKRPSGIPERFSGSNSGNTATLTISGTQAVDEADYYCQAWDSSTYVFGTGTKVTVL | 19.2 | 0.00396 | 206000 | 4.74 | 0.00148 | 313000 | 0.00313 | 82.5 | 6750 | 46300 | 197000 | 75.2 | 2060 | 8440 | 12600 | 0.0012
C33B63 (antibody, IgG1, V domains shown, huIgG1 F405L; also called C33F68; C33H51/C33L34) VH: QLQLQESGPGLVKPSETLSLTCTVSGGSISTGRYYWGWIRQPPGKGVIWIGNIYYSGNTYYNPSLKSRVTISVDTSKNQFSLKLNSVTAADTAVYYCARLGSLVVVPAAMSFDYWGQGTLVTVSS VL: SYELTQPPSVSVSPGQTASITCSGDKLGDKYACWYQLRPGQSPILVIYQDSNRPSGIPERFSGSNSGNTATLTISGTQAMDEADYYCQAWDSSTWVFGGGTKLTVL | 7.01 | 0.00374 | 533000 | 1.22 | 0.00088 | 723000 | 0.00457 | 86.3 | 9670 | 62200 | 248000 | 87.9 | 2880 | 11600 | 18300 | 0.000947
C33B77 (antibody, IgG1, V domains shown, huIgG1 F405L; also called C33F82; C33H72/C33L40) VH: not shown VL: SYELTQPPSVSVSPGQTASITCSGNKLGAKFASWYQQKPGQSPVLVIYQDNKRPSGIPERFSGSNSGNTATLTISGTQAVDEADYYCQAWDSSTVVFGGGTKLTVL | 0.32 | 0.000262 | 828000 | 0.247 | 0.000266 | 1.08e+06 | 0.000337 | 69.5 | 11500 | 88700 | 242000 | 85.2 | 3600 | 11700 | 17500 | 0.000418
C33B87 (antibody, IgG1, V domains shown, huIgG1 F405L; also called C33F92; C33H87/C33L35) VH: not shown VL: SYELTQPPSVSVSPGQTASITCSGDKLGNKYASWYQQKPGQSPVLVIYQDTKRPSGIPERVSGSNSGNTATLTISGTQAMDEADYHCQAWDSSTVVFGGGTKLTVL | 0.6 | 0.000432 | 720000 | 0.236 | 0.000264 | 1.12e+06 | 0.000352 | 73.7 | 12500 | 79500 | 242000 | 103 | 3270 | 12700 | 19600 | 0.000228
C33B83 (antibody, V domains shown, huIgG1 F405L; also called C33F88; C33H81/C33L53) VH: QVQLVESGGGVVQPGRSLRLSCAASGFTFSAYGMHWVRQAPGKGLEWVAVISYDGSNKYYADSVKGRFTISRDNSKNTLYLQMNSLRAEGTAVYYCAKDFRSFDWLPPDSASYHGMDVWGQGTTVTVSS VL: not shown | 1.93 | 0.000521 | 270000 | 11.7 | 0.00288 | 247000 | 0.000461 | 87.4 | 1020 | 7860 | 93000 | 87.3 | 159 | 687 | 5300 | 0.00217
C33B125 (antibody, IgG1, V domains shown, huIgG1 F405L; also called C33F130; C33H84/C33L66) VH: QVQLVESGGGVVQPGRSLRLSCAASGFTFSSYGMHWVRQAPGKGLEWVAVISYDGSNKYYADSVKGRFTISRDNSKNTLYLQMNSLRAEDTAVYYCAKDFRSFDWLPPDSTSYYGMDVWGQGTTVTVSS VL: SYELTQPPSVSVSPGQTASITCSGDKLGDKYVCWYQQKPGQSPVVVIHQDRKRPSGIPERFSGSNFGNTATLTISGTQAMDEADYYCQAWDSSTVVFGGGTKLTVL | 0.14 | 0.000134 | 992000 | 0.304 | 0.000339 | 1.12e+06 | 0.000154 | 78.3 | 9200 | 79700 | 259000 | 70.2 | 3460 | 11500 | 15600 | 0.000351
C33B124 (antibody, IgG1, V domains shown, huIgG1 F405L; also called C33F129; C33H73/C33L32) VH: EVQLLESGGGLVQPGGSLRLSCAASRFTFSSYAMTWVRQAPGKGLEWVSTINISGGSTYYADSVKGRFTISRDNSKNTLYLQMNSLRAEDTAVYYCTKGGYSSGPFDYWGQGTLVSVSS VL: SYELTQPPSVSVSPGQTASITCSGDKLGDKYVRWYQQKTGQSPVLVMYQDSKRPSGIRERFYGSNSGNTATPTISGTQAVDEAEYYCQAWDSSTGVVFGGGTKLTVL | 0.35 | 0.000124 | 357000 | 1.01 | 0.000472 | 467000 | 0.000238 | 172 | 90.3 | 126 | 798 | 98.4 | 77.3 | 132 | 593 | 0.000477
C33B80 (antibody, IgG1, V domains shown, huIgG1 F405L; also called C33F85; C33H76/C33L39) VH: EVQLLESGGGLVQPGGSLRLSCAASGFTFNYAMSWVRQAPGKGLEWVSAISGSGGSTYYADSVKGRFTISRDISKNTLYLQMNSLRAEDTAVYYCARTYNSGYYDGDFDYWGQGTLVTVSS VL: QSALTQPASVSGSPGQSIPISSTGTSSDDGKNNIVSWYQQHPGKAPKLMIYKDSKRPSGVSNRFSGSKSGNTASLTISGLQADDEADYHCCSYAGASNHVVFGGGTKLTVL | 1.32 | 0.000425 | 323000 | 0.527 | 0.000259 | 492000 | 0.000384 | 88.9 | 115 | 410 | 5800 | 82.4 | 109 | 249 | 4610 | 0.000266
